Source: patent US20230340090A1 (published 2023)

T1: TDP-215 peptide GDVMDVFI (human)
T1 construct: same ELISA method as for the biotinylated 15-mers
T1 peptide: GDVMDVFI

B1: ACI-7062-404D6-Ab2 (antibody, IgG3, V domains shown)
VH: QVTLKESGPGILQPSQTLSLTCSFSGFSLSTYGIGVGWIRQPSGKGLEWLAHIWWNDYKYYNTALKSRLTISKDTSNNRVFLKIASVDTADTATYYCARVYGNLYYFDYWGQGTTLTVSS
VL: DVLMTQTPLSLPVSLGDQASISCRSSQSIVHGSGNTYLEWYLQKPGQSPKLLIYKVSNRFSGVPDRFSGSGSGTDFTLRISRVEAEDLGVYYCFQGSHVPTFGAGTKLELKR
notes: Mouse hybridoma antibody, IgG3, kappa; also called 404D6E11; clone 4
B2: ACI-7062-415H10-Ab2 (antibody, IgG3, V domains shown)
VH: DVQLVESGGGLVQPGGSRKLSCAASGFTFSSFGMHWVRQAPEKGLEWVAYISSGSSNIYYTDTVKGRFTISRDNPKNTLFLQMTSLRSEDTAIYYCARSGTTVPFDYWGQGTTLTVSS
VL: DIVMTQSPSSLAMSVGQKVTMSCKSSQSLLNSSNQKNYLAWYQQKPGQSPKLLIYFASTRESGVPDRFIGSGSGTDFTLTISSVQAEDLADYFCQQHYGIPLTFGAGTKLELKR
notes: Mouse hybridoma antibody, IgG3, kappa; also called 415H10B7; clone 17

Molecular target: T1, TDP-215 peptide GDVMDVFI
Test: indirect ELISA on 8-mer peptide library
Experimental: Serum-free supernatants were harvested from stable hybridomas. The supernatants containing antibodies of interest were then screened by an indirect ELISA assay to determine epitopes. Epitopes were mapped using a library of TDP-43 15-mer peptides. Briefly, 96-well streptavidin-coated 96-well ELISA plates were incubated with 5 μg/mL of biotinylated 15-mer peptides spanning the amino acids (aa) 199-285 of human TDP-43 with 9 as offset and 6 as overlap. Plates were washed thoroughly with 0.05% Tween-20/PBS and then blocked with 1% bovine serum albumin (BSA) in 0.05% Tween-20/PBS for 1 hour at 37° C. The antibody contained in the hybridoma supernatant was then added at the indicated dilutions, and incubated for 2 hours at 37° C. after which the plates were washed as described previously. An AP-conjugated anti-mouse IgG secondary antibody (Jackson ImmunoResearch Laboratories, United Kingdom) was added at 1/1000 dilution in 0.05% Tween-20/PBS for 1 hour at 37° C. After the final wash, plates were incubated with pNPP (Sigma-Aldrich, Switzerland) an AP substrate solution, and read at 405 nm using an ELISA plate reader (Tecan).
Furthermore, antibodies were tested using an indirect ELISA on a peptide library of 8-mer peptides with 7 an overlap covering the sequence of human TDP-43 from aa 210 to aa 231, using the same ELISA method as describe previously in this section.

Row | Binder | binding result
1 | B1 | binds
2 | B2 | binds
